Source: patent US20200079833A1 (AstraZeneca / MedImmune, published 2020)
Starred links: 1 amine or outer side, 2 acyl side, 3 side chain; linkers in the order of their positions; H or OH if unused. Non-standard residues stand in square brackets, D forms with d. Groups on a side chain read outwards from the residue. Primed or numbered codes have the meaning given here. No end group written: not given here. *: point of attachment. γGlu = O=C(O)[C@H](CCC(=O)[*:2])N[*:1]; Stearoyl = CCCCCCCCCCCCCCCCCC(=O)*; Palmitoyl = CCCCCCCCCCCCCCCC(=O)*; αMeF = C[C@](N)(Cc1ccccc1)C(=O)O; αMeK = C[C@](N)(CCCCN)C(=O)O; αMeS = C[C@](N)(CO)C(=O)O; PEG2′ = not defined here; Aib = CC(C)(N)C(=O)O

T1: glucose-dependent insulinotropic peptide (gastric inhibitory polypeptide) receptor (human, UniProt P48546 22-466)
T1 sequence (looked up): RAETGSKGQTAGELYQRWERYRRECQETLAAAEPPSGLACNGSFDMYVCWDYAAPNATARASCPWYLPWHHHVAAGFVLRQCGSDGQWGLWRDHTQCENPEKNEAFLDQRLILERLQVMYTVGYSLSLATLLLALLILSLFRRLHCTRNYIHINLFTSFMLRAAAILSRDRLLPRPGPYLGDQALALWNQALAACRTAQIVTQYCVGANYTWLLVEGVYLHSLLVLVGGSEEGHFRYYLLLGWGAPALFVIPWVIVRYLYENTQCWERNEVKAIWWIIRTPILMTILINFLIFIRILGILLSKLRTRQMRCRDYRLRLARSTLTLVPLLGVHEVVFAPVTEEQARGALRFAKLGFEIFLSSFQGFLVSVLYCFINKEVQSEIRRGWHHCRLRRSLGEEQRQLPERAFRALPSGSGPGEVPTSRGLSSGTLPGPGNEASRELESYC

B1: SEQ ID NO 35 (peptide)
peptide: H[Aib]EGS[αMeF]TDDV[αMeS]S[αMeF]LEGEAA[αMeK]E[αMeF]IA[αMeF]VV[αMeK]GGK([γGlu-Palmitoyl])-NH2
modifications: N-terminus assumed
SMILES: CCCCCCCCCCCCCCCC(=O)N[C@@H](CCC(=O)NCCCC[C@H](NC(=O)CNC(=O)CNC(=O)[C@](C)(CCCCN)NC(=O)[C@@H](NC(=O)[C@@H](NC(=O)[C@](C)(Cc1ccccc1)NC(=O)[C@H](C)NC(=O)[C@@H](NC(=O)[C@](C)(Cc1ccccc1)NC(=O)[C@H](CCC(=O)O)NC(=O)[C@](C)(CCCCN)NC(=O)[C@H](C)NC(=O)[C@H](C)NC(=O)[C@H](CCC(=O)O)NC(=O)CNC(=O)[C@H](CCC(=O)O)NC(=O)[C@H](CC(C)C)NC(=O)[C@](C)(Cc1ccccc1)NC(=O)[C@H](CO)NC(=O)[C@](C)(CO)NC(=O)[C@@H](NC(=O)[C@H](CC(=O)O)NC(=O)[C@H](CC(=O)O)NC(=O)[C@@H](NC(=O)[C@](C)(Cc1ccccc1)NC(=O)[C@H](CO)NC(=O)CNC(=O)[C@H](CCC(=O)O)NC(=O)C(C)(C)NC(=O)[C@@H](N)Cc1c[nH]cn1)[C@@H](C)O)C(C)C)[C@@H](C)CC)C(C)C)C(C)C)C(N)=O)C(=O)O
B2: SEQ ID NO 6 (peptide)
peptide: HXEGTFTSDVSSYLEGQAAKEFIAWLVKGRK
modifications: Aib 2; K(ε-(PEG)2-(PEG)2-γE-Stearate) after R30; C-terminal amide
B3: SEQ ID NO 36 (peptide)
peptide: H[Aib]EGS[αMeF]TDDV[αMeS]S[αMeF]LEGEAAK([PEG2′-PEG2′-γGlu-Stearoyl])E[αMeF]IA[αMeF]VV[αMeK]GG-NH2
B4: SEQ ID NO 37 (peptide)
peptide: H[Aib]EGS[αMeF]TDDV[αMeS]S[αMeF]LEGEAAK([γGlu-Palmitoyl])E[αMeF]IA[αMeF]VV[αMeK]GG-NH2
modifications: N-terminus assumed
SMILES: CCCCCCCCCCCCCCCC(=O)N[C@@H](CCC(=O)NCCCC[C@H](NC(=O)[C@H](C)NC(=O)[C@H](C)NC(=O)[C@H](CCC(=O)O)NC(=O)CNC(=O)[C@H](CCC(=O)O)NC(=O)[C@H](CC(C)C)NC(=O)[C@](C)(Cc1ccccc1)NC(=O)[C@H](CO)NC(=O)[C@](C)(CO)NC(=O)[C@@H](NC(=O)[C@H](CC(=O)O)NC(=O)[C@H](CC(=O)O)NC(=O)[C@@H](NC(=O)[C@](C)(Cc1ccccc1)NC(=O)[C@H](CO)NC(=O)CNC(=O)[C@H](CCC(=O)O)NC(=O)C(C)(C)NC(=O)[C@@H](N)Cc1c[nH]cn1)[C@@H](C)O)C(C)C)C(=O)N[C@@H](CCC(=O)O)C(=O)N[C@@](C)(Cc1ccccc1)C(=O)N[C@H](C(=O)N[C@@H](C)C(=O)N[C@@](C)(Cc1ccccc1)C(=O)N[C@H](C(=O)N[C@H](C(=O)N[C@@](C)(CCCCN)C(=O)NCC(=O)NCC(N)=O)C(C)C)C(C)C)[C@@H](C)CC)C(=O)O
B5: SEQ ID NO 38 (peptide)
peptide: H[Aib]EGS[αMeF]TSDVSS[αMeF]LEGEAAKE[αMeF]IA[αMeF]VVKGGK([PEG2′-PEG2′-γGlu-Stearoyl])-NH2
B6: SEQ ID NO 39 (peptide)
peptide: H[Aib]EGS[αMeF]TSDVSS[αMeF]LEGEAAKE[αMeF]IA[αMeF]VVKGGK([γGlu-Palmitoyl])-NH2
modifications: N-terminus assumed
SMILES: CCCCCCCCCCCCCCCC(=O)N[C@@H](CCC(=O)NCCCC[C@H](NC(=O)CNC(=O)CNC(=O)[C@H](CCCCN)NC(=O)[C@@H](NC(=O)[C@@H](NC(=O)[C@](C)(Cc1ccccc1)NC(=O)[C@H](C)NC(=O)[C@@H](NC(=O)[C@](C)(Cc1ccccc1)NC(=O)[C@H](CCC(=O)O)NC(=O)[C@H](CCCCN)NC(=O)[C@H](C)NC(=O)[C@H](C)NC(=O)[C@H](CCC(=O)O)NC(=O)CNC(=O)[C@H](CCC(=O)O)NC(=O)[C@H](CC(C)C)NC(=O)[C@](C)(Cc1ccccc1)NC(=O)[C@H](CO)NC(=O)[C@H](CO)NC(=O)[C@@H](NC(=O)[C@H](CC(=O)O)NC(=O)[C@H](CO)NC(=O)[C@@H](NC(=O)[C@](C)(Cc1ccccc1)NC(=O)[C@H](CO)NC(=O)CNC(=O)[C@H](CCC(=O)O)NC(=O)C(C)(C)NC(=O)[C@@H](N)Cc1c[nH]cn1)[C@@H](C)O)C(C)C)[C@@H](C)CC)C(C)C)C(C)C)C(N)=O)C(=O)O
B7: SEQ ID NO 40 (peptide)
peptide: H[Aib]EGS[αMeF]TSDVSS[αMeF]LEGEAAK([PEG2′-PEG2′-γGlu-Stearoyl])E[αMeF]IA[αMeF]VVKGG-NH2
B8: SEQ ID NO 41 (peptide)
peptide: H[Aib]EGS[αMeF]TSDVSS[αMeF]LEGEAAK([γGlu-Palmitoyl])E[αMeF]IA[αMeF]VVKGG-NH2
modifications: N-terminus assumed
SMILES: CCCCCCCCCCCCCCCC(=O)N[C@@H](CCC(=O)NCCCC[C@H](NC(=O)[C@H](C)NC(=O)[C@H](C)NC(=O)[C@H](CCC(=O)O)NC(=O)CNC(=O)[C@H](CCC(=O)O)NC(=O)[C@H](CC(C)C)NC(=O)[C@](C)(Cc1ccccc1)NC(=O)[C@H](CO)NC(=O)[C@H](CO)NC(=O)[C@@H](NC(=O)[C@H](CC(=O)O)NC(=O)[C@H](CO)NC(=O)[C@@H](NC(=O)[C@](C)(Cc1ccccc1)NC(=O)[C@H](CO)NC(=O)CNC(=O)[C@H](CCC(=O)O)NC(=O)C(C)(C)NC(=O)[C@@H](N)Cc1c[nH]cn1)[C@@H](C)O)C(C)C)C(=O)N[C@@H](CCC(=O)O)C(=O)N[C@@](C)(Cc1ccccc1)C(=O)N[C@H](C(=O)N[C@@H](C)C(=O)N[C@@](C)(Cc1ccccc1)C(=O)N[C@H](C(=O)N[C@H](C(=O)N[C@@H](CCCCN)C(=O)NCC(=O)NCC(N)=O)C(C)C)C(C)C)[C@@H](C)CC)C(=O)O
B9: SEQ ID NO 42 (peptide)
peptide: H[Aib]EGS[αMeF]TSDV[αMeS]S[αMeF]LEGEAAEE[αMeF]IA[αMeF]VV[αMeK]GG-NH2
modifications: N-terminus assumed
SMILES: CC[C@H](C)[C@H](NC(=O)[C@](C)(Cc1ccccc1)NC(=O)[C@H](CCC(=O)O)NC(=O)[C@H](CCC(=O)O)NC(=O)[C@H](C)NC(=O)[C@H](C)NC(=O)[C@H](CCC(=O)O)NC(=O)CNC(=O)[C@H](CCC(=O)O)NC(=O)[C@H](CC(C)C)NC(=O)[C@](C)(Cc1ccccc1)NC(=O)[C@H](CO)NC(=O)[C@](C)(CO)NC(=O)[C@@H](NC(=O)[C@H](CC(=O)O)NC(=O)[C@H](CO)NC(=O)[C@@H](NC(=O)[C@](C)(Cc1ccccc1)NC(=O)[C@H](CO)NC(=O)CNC(=O)[C@H](CCC(=O)O)NC(=O)C(C)(C)NC(=O)[C@@H](N)Cc1c[nH]cn1)[C@@H](C)O)C(C)C)C(=O)N[C@@H](C)C(=O)N[C@@](C)(Cc1ccccc1)C(=O)N[C@H](C(=O)N[C@H](C(=O)N[C@@](C)(CCCCN)C(=O)NCC(=O)NCC(N)=O)C(C)C)C(C)C

Columns and labels:
Experiment in all cases: cell-based or functional assay
GLP-1 receptor = GLP-1 receptor (human, UniProt P43220 24-463)
glucagon receptor = glucagon receptor (human, UniProt P47871 26-477)
Chain of glucagon receptor (P47871 26-477): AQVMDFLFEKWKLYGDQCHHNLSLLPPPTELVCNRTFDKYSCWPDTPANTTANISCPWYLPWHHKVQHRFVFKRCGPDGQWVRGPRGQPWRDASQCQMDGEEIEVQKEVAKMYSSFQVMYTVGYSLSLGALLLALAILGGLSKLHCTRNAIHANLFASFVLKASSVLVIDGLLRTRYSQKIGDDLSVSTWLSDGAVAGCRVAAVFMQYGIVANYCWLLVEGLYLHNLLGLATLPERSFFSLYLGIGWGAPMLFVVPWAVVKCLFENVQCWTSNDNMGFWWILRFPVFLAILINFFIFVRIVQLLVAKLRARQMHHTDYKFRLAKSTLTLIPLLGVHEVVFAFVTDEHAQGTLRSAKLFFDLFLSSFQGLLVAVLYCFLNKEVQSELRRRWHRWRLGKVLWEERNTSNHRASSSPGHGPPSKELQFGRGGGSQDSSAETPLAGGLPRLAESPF

[1] = target: T1, glucose-dependent insulinotropic …

Binder	Primary assay EC50 (cAMP), Mean pM GLP-1R (GLP-1 receptor) [pM]	Primary assay EC50 (cAMP), n1 (GLP-1 receptor) [nM]	Primary assay EC50 (cAMP), n2 (GLP-1 receptor) [nM]	Primary assay EC50 (cAMP), n1 (glucagon receptor) [nM]	Primary assay EC50 (cAMP), n2 (glucagon receptor) [nM]	Primary assay EC50 (cAMP), n1 [1] [nM]	Primary assay EC50 (cAMP), n2 [1] [nM]
B1	3260	4.9	1.7	89	27	89	27
B2	5.1	0.0048	0.0053	22	22	22	22
B3	44200	63	25	84	25	84	25
B4	4500	7.3	1.7	92	28	92	28
B5	72	0.062	0.082	25	25	25	25
B6	33	0.033	0.033	27	27	27	27
B7	1170	1.8	0.57	85	26	85	26
B8	147	0.24	0.051	94	28	94	28
B9	8.7	0.0069	0.011	31	31	31	31
